Test [1] deals with androgenic alopecia model. As to the kind of experiment: First experiment: testosterone-induced androgenic alopecia model, hair observed by dermatoscope and scanning electron microscopy. Type of test: in vivo, C57BL/6 male mice. The method, then:
Experimental animals: C57BL/6 male mice, 6-7 weeks old, weighing (20±2) g, were provided by Beijing Vital River Laboratory Animal Technology Co. Ltd., with the animal license number of SCXK (Beijing) 2021-0006. They were kept in a 12 h light/12 h dark environment, with free access to food and water. The mice were divided into normal NC group (NC), model group (Model), positive control-minoxidil group (Minoxidil), positive control-finasteride group (Finasteride), experimental group A and experimental group B. The proteins were stored in a −70° C. refrigerator and diluted with physiological saline when used. Experimental group A used rh-CRT-1, with a concentration of 0.21 mg/ml. Experimental group B used rh-CRT-2, with a concentration of 0.21 mg/ml. There were 6 mice in each group.
The main reagents used are as follows: 4% paraformaldehyde (Beijing Solarbio Technology Co., Ltd., China), isoflurane (Rayward, China), testosterone (Shanghai Standard Biotechnology Co., Ltd., China), paraffin sectioner (Thermo, USA), small animal anesthesia machine (Rayward, China), and inverted microscope (Olympus, Japan).
Modeling and drug administration: First, the androgenic alopecia model was established. One day before the modeling, the hair in the central part of the back of the experimental animal was removed with a skin preparation knife, and the prepared area was depilated with a depilatory cream. After 24 hours of depilation, the modeling agent (testosterone, 5.0 mg/mL) was subcutaneously injected into the neck of the mice in groups except the NC group, with a total dose of 0.2 mL/mouse. The mice in the NC group were injected with an equal amount of normal saline. After modeling, the mice were administrated with drugs. The NC group was injected with normal saline once a day, 0.15 mL/mouse each time. The experimental group A, experimental group B and positive control group were injected with modeling agent (testosterone), and administrated with drugs after 2 hours, and the dose of modeling agent was 0.2 mL/mouse. The experimental group A and experimental group B were injected on the back once a day, 0.15 mL/mouse each time. The positive control minoxidil group was applied 5% minoxidil externally, 0.01 mL/mouse, once a day. The positive control finasteride group was applied finasteride at a concentration of 13 μg/mL, 0.2 mL/mouse, once a day.

The test system of test [2] is AGA (androgenic alopecia) model mice. As to the kind of experiment: Third experiment: hair growth score in DHT-induced AGA model mice. Type of test: in vivo, C57BL/6N male mice. As to conditions: Day 17, P<0.05. The method, then:
C57BL/6N male mice, 6-7 weeks old, weighing (18-20) g, 50 mice, with the animal license number of SCXK (Beijing) 2021-0006, were kept in a 12 h light/12 h dark environment, with free access to food and water. Adaptive feeding was performed for about 1 week.
The hair in an area of about 2 cm×3 cm at the border of the spine was shaved using an electric shaver. The depilatory area was applied with 8% sodium sulfide solution. After 90±10 s, the depilatory area on the back was cleaned with cotton balls dipped in water, the residual sodium sulfide was washed away with a washing bottle, and then the mice were wiped dry. Because the hair follicle cycle of mice was in the resting phase at this time, the mouse skin was pink. Mice were randomly divided into groups using Excel software, 10 mice in each group, and the modeling was established after 24 h and the drug was administered for 17 consecutive days. The AGA model was established by injecting dihydrotestosterone into the experimental mice. Dihydrotestosterone (DHT) solution was injected subcutaneously at multiple points every day, 100 μL/mouse (5 mg/kg body weight), and then the drug was administered after 3 h of absorption. CRT-2 and CRT-1 protein solutions were applied externally. 100 μL of protein solution was applied, and 100 μl of minoxidil MNX was applied. The CRT and MNX combination group was first applied with CRT-2 protein solution and then MNX 2 hours later. The solvent formula comprised 50% ethanol, 20% propylene glycol, and 30% pure water.
Scoring was based on the coverage of hair growth: • 0 points: no hair growth, pink in the hair removal area; • 1 point: gray in the hair removal area, hair coverage area E<20%; • 2 points: black in the hair removal area, hair coverage area 20%<E<40%; • 3 points: black in the hair removal area with a little hair growth, hair coverage area 40%<E<60%; • 4 points: black in the hair removal area with some hair growth, hair coverage area 60%<E<80%; • 5 points: black in the hair removal area, hair coverage area 80%<E<100%.
The skin color changes of mice were observed before administration every day. The hair removal time of mice was designated as Day 0, the first day of administration was designated as Day 1, and so on. The hair growth of each mouse was recorded and analyzed on Day 7, Day 9, Day 11, Day 13, Day 15, and Day 17.

Entries after “also recorded” stand apart in the source; their conditions may differ.

B1: CRT-2: fragment (1-349 aa) of recombinantly expressed CRT, amino acid sequence SEQ ID NO: 9 (protein)
chain: EPAVYFKEQFLDGDGWTSRWIESKHKSDFGKFVLSSGKFYGDEEKDKGLQTSQDARFYALSASFEPFSNKGQTLVVQFTVKHEQNIDCGGGYVKLFPNSLDQTDMHGDSEYNIMFGPDICGPGTKKVHVIFNYKGKNVLINKDIRCKDDEFTHLYTLIVRPDNTYEVKIDNSQVESGSLEDDWDFLPPKKIKDPDASKPEDWDERAKIDDPTDSKPEDWDKPEHIPDPDAKKPEDWDEEMDGEWEPPVIQNPEYKGEWKPRQIDNPDYKGTWIHPEIDNPEYSPDPSIYAYDNFGVLGLDLWQVKSGTIFDNFLITNDEAYAEEFGNETWGVTKAAEKQMKDKQDEEQR
Take B1: in test [1] (21 days, compared with the model group (frizzy hair), proteins 0.21 mg/ml injected on the back once a day, minoxidil 5% external, finasteride 13 μg/mL), the “changes in hair observed by dermatoscope” value is recorded as “smoother”. The “hair cuticles observed by scanning electron microscopy” value in test [1] (21 days, proteins 0.21 mg/ml injected on the back once a day, minoxidil 5% external, finasteride 13 μg/mL, listed as experimental group B) is on record as “arranged neatly; also recorded: denser than those of group A”. In addition, in test [1] (first experiment, comparison of experimental groups B and A), the “hair shafts (scanning electron microscopy, FIG. 18 vs FIG. 19)” value is reported as “thicker than those of experimental group A”. In test [2] (external application 100 μL, CRT 0.35 mg/ml, MNX 5 mg/ml), the “hair growth score compared with the Model group” value is “significantly increased”. In addition, the “hair growth score compared with the CRT-1 group” value in test [2] (external application) is “better than; also recorded: significantly increased”.

For the origin of these results see patent publication US20250000944A1, “USE OF RECOMBINANT CALRETICULIN IN HAIR GROWTH, HAIR BREEDING, HAIR PROTECTION OR ANTI-HAIR LOSS AND RELATED PRODUCT” (BEIJING YITUBAIHUI BIOTECH CO., LTD, priority 2021, published 2025).
